Measurements: FireProtDB (doi:10.1006/jmbi.1993.1508)

B1: Ribonuclease, P00648 (parent)
chain: MMKMEGIALKKRLSWISVCLLVLVSAAGMLFSTAAKTETSSHKAHTEAQVINTFDGVADYLQTYHKLPDNYITKSEAQALGWVASKGNLADVAPGKSIGGDIFSNREGKLPGKSGRTWREADINYTSGFRNSDRILYSSDWLIYKTTDHYQTFTKIR

Variants of: B1
Settings: Bacillus amyloliquefaciens; pH 6.3; 25 °C; Urea; Fluorescence; MES 50 mM; reversible: yes; structure 1BNI; whole UniProt chain shown

## S132A
  ddG of mutation (higher = less stable): -0.28 kcal/mol
  denaturant m value: 2.02 kcal/mol/M
  denaturant midpoint (higher = more stable): 4.51 M
  unfolding free energy: 9.1 kcal/mol

## H65K
  ddG of mutation (higher = less stable): 0.92 kcal/mol
  denaturant m value: 2 kcal/mol/M
  denaturant midpoint (higher = more stable): 3.9 M
  unfolding free energy: 7.9 kcal/mol

## K109R
  ddG of mutation (higher = less stable): 0.02 kcal/mol
  denaturant m value: 2.04 kcal/mol/M
  denaturant midpoint (higher = more stable): 4.3 M
  unfolding free energy: 8.8 kcal/mol

## D91E
  ddG of mutation (higher = less stable): 0.32 kcal/mol
  denaturant m value: 1.84 kcal/mol/M
  denaturant midpoint (higher = more stable): 4.6 M
  unfolding free energy: 8.5 kcal/mol

## K66R
  ddG of mutation (higher = less stable): -0.88 kcal/mol
  denaturant m value: 2.08 kcal/mol/M
  denaturant midpoint (higher = more stable): 4.6 M
  unfolding free energy: 9.7 kcal/mol

## Q62I
  ddG of mutation (higher = less stable): -1.38 kcal/mol
  denaturant m value: 2.02 kcal/mol/M
  denaturant midpoint (higher = more stable): 5 M
  unfolding free energy: 10.2 kcal/mol

## K113A
  ddG of mutation (higher = less stable): -0.98 kcal/mol
  denaturant m value: 2.09 kcal/mol/M
  denaturant midpoint (higher = more stable): 4.7 M
  unfolding free energy: 9.8 kcal/mol

## T63R
  ddG of mutation (higher = less stable): -0.78 kcal/mol
  denaturant m value: 1.98 kcal/mol/M
  denaturant midpoint (higher = more stable): 4.8 M
  unfolding free energy: 9.6 kcal/mol

## Q62I T63R K66R G112S K113A K155R
  ddG of mutation (higher = less stable): -2.98 kcal/mol
  denaturant m value: 1.86 kcal/mol/M
  denaturant midpoint (higher = more stable): 6.34 M
  unfolding free energy: 11.8 kcal/mol

## Q62I T63R K66R
  ddG of mutation (higher = less stable): -1.98 kcal/mol
  denaturant m value: 2 kcal/mol/M
  denaturant midpoint (higher = more stable): 5.42 M
  unfolding free energy: 10.8 kcal/mol

## K155R
  ddG of mutation (higher = less stable): -0.78 kcal/mol
  denaturant m value: 1.91 kcal/mol/M
  denaturant midpoint (higher = more stable): 5 M
  unfolding free energy: 9.6 kcal/mol

## Q78S
  ddG of mutation (higher = less stable): -0.28 kcal/mol
  denaturant m value: 2.05 kcal/mol/M
  denaturant midpoint (higher = more stable): 4.4 M
  unfolding free energy: 9.1 kcal/mol

## L136V
  ddG of mutation (higher = less stable): 0.32 kcal/mol
  denaturant m value: 1.92 kcal/mol/M
  denaturant midpoint (higher = more stable): 4.4 M
  unfolding free energy: 8.5 kcal/mol

## T126V
  ddG of mutation (higher = less stable): -0.18 kcal/mol
  denaturant m value: 1.91 kcal/mol/M
  denaturant midpoint (higher = more stable): 4.7 M
  unfolding free energy: 9 kcal/mol

## Q151A
  ddG of mutation (higher = less stable): 0.02 kcal/mol
  denaturant m value: 1.98 kcal/mol/M
  denaturant midpoint (higher = more stable): 4.4 M
  unfolding free energy: 8.8 kcal/mol

## I135L
  ddG of mutation (higher = less stable): 0.02 kcal/mol
  denaturant m value: 1.98 kcal/mol/M
  denaturant midpoint (higher = more stable): 4.4 M
  unfolding free energy: 8.8 kcal/mol

## I102V
  ddG of mutation (higher = less stable): 0.32 kcal/mol
  denaturant m value: 1.93 kcal/mol/M
  denaturant midpoint (higher = more stable): 4.4 M
  unfolding free energy: 8.5 kcal/mol

## G112S
  ddG of mutation (higher = less stable): -0.98 kcal/mol
  denaturant m value: 2.03 kcal/mol/M
  denaturant midpoint (higher = more stable): 4.8 M
  unfolding free energy: 9.8 kcal/mol
